In patent publication US20260234245A1 (ELTHERA, published 2026):

Columns and labels:
[1] = molecular target: T1, recombinant hexahistidine-tagged human CHL1 (human, UniProt O00533 25-1082, limits assumed); experiment: direct ELISA on plate-coated human CHL1-His, HRP goat anti-mouse detection
T1 construct: Hexahistidine-tagged; also called plate-coated human CHL1; close homolog of L1 (CHL1)
T1 sequence (looked up): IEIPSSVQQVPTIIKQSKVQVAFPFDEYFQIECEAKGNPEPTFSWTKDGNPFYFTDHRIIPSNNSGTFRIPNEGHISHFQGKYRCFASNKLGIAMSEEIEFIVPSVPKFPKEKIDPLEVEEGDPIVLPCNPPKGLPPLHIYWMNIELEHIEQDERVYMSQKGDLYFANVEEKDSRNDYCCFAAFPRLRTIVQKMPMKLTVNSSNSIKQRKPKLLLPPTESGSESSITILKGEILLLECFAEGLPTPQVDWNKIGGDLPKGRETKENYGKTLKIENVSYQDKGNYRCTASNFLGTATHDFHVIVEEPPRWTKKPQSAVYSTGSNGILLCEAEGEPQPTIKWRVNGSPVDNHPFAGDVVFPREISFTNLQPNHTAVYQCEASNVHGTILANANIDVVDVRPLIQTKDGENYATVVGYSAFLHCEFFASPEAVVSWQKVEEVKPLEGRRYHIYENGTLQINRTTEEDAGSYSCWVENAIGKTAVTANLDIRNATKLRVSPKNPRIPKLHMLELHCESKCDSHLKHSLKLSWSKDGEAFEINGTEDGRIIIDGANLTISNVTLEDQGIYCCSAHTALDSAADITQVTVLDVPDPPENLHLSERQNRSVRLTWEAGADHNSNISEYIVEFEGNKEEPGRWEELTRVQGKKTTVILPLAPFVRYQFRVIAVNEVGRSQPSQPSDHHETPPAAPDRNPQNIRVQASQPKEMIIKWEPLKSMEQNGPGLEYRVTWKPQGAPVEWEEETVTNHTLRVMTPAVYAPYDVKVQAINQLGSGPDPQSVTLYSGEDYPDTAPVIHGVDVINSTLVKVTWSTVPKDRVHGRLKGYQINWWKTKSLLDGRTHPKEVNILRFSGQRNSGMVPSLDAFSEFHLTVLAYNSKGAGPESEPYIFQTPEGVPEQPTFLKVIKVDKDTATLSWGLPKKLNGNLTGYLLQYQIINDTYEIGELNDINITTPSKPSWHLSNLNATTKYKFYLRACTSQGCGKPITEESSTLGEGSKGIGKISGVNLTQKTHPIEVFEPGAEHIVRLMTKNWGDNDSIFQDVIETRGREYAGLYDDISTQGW
Procedure: (§1) Recombinant human L1CAM-human Fc and human NrCAM-human Fc fusion proteins, as well as recombinant hexahistidine-tagged versions of human CHL1 and Neurofascin, respectively, were added to ELISA plates at a concentration of 1 μg/mL in 50 mM carbonate buffer pH 9.6 (100 μL per well). Plates were incubated overnight at 4° C., washed 5 times with PBS/0.05% Tween, and blocked by the addition of 200 μL per well PBS/0.05% Tween/1% Bovine serum albumin (BSA). […] As positive controls the same dilution series were prepared for commercial mouse antibodies directed against L1CAM (clone UJ127.11, NovusBio), human NrCAM (clone 308000, Creative Diagnostics), human CHL1 (clone 6E6E4, Sino Biological) and human Neurofascin (clone 727030, R&D systems). Plates were washed 5 times with PBS/0.05% Tween, and 100 μL per well of the antibody dilution series were added to the plates. After an incubation for 1 hour at room temperature, plates were washed again and 100 μL per well of a horse-radish peroxidase conjugated polyclonal goat anti-mouse antibody (diluted 1:1000 in PBS/0.05% Tween/1% BSA) was added. […] After an incubation of 8 minutes at room temperature, reactions were stopped by the addition of 50 μL per well 0.16 M H₂SO₄, and absorption at 450 nm was determined in a microplate reader.

[2] = molecular target: T2, recombinant hexahistidine-tagged human Neurofascin (human, UniProt O94856 25-1217, limits assumed); experiment: direct ELISA on plate-coated human Neurofascin-His, HRP goat anti-mouse detection
T2 construct: Hexahistidine-tagged; also called plate-coated human Neurofascin
T2 sequence (looked up): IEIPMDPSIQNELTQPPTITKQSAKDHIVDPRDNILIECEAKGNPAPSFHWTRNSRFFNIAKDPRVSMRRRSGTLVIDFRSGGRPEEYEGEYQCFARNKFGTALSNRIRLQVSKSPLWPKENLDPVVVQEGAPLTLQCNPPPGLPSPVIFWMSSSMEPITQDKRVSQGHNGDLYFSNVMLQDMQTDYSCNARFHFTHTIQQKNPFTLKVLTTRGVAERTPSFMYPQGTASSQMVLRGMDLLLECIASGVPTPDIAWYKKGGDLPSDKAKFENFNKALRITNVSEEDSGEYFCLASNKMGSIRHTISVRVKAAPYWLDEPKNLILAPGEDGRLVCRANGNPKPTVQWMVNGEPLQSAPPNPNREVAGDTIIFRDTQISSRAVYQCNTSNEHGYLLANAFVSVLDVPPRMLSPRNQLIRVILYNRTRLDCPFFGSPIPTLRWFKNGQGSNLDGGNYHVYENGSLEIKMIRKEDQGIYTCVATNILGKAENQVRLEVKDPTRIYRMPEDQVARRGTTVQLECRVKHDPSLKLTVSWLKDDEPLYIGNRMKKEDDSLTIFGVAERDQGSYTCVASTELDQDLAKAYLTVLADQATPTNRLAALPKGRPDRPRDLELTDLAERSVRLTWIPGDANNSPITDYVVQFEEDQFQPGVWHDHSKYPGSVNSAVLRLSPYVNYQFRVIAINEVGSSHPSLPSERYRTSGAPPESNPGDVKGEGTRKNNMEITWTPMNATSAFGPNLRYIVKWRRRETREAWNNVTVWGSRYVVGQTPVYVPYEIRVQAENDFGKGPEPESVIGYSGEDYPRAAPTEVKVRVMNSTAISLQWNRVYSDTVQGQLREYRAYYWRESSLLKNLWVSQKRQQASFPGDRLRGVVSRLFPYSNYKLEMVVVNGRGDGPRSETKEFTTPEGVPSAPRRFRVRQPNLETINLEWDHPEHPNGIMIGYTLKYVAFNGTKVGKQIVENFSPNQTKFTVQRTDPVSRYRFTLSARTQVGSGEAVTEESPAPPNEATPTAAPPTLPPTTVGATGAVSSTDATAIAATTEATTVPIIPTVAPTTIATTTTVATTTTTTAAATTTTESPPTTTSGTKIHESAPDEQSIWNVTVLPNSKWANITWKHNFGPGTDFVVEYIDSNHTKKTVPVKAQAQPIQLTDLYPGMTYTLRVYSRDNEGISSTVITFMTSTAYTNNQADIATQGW
Procedure: as §1

[3] = molecular target: T3, recombinant human NrCAM-human Fc fusion protein (human, UniProt Q92823 25-1167, limits assumed); experiment: direct ELISA on plate-coated human NrCAM (panel titled 'human NrCAM-His'; the text calls it an NrCAM-human Fc fusion), HRP goat anti-mouse detection
T3 construct: also called plate-coated human NrCAM; Neuronal cell adhesion molecule (NrCAM)
Procedure: as §1

Measured: binding result

T3 sequence (Q92823 25-1167 limits assumed): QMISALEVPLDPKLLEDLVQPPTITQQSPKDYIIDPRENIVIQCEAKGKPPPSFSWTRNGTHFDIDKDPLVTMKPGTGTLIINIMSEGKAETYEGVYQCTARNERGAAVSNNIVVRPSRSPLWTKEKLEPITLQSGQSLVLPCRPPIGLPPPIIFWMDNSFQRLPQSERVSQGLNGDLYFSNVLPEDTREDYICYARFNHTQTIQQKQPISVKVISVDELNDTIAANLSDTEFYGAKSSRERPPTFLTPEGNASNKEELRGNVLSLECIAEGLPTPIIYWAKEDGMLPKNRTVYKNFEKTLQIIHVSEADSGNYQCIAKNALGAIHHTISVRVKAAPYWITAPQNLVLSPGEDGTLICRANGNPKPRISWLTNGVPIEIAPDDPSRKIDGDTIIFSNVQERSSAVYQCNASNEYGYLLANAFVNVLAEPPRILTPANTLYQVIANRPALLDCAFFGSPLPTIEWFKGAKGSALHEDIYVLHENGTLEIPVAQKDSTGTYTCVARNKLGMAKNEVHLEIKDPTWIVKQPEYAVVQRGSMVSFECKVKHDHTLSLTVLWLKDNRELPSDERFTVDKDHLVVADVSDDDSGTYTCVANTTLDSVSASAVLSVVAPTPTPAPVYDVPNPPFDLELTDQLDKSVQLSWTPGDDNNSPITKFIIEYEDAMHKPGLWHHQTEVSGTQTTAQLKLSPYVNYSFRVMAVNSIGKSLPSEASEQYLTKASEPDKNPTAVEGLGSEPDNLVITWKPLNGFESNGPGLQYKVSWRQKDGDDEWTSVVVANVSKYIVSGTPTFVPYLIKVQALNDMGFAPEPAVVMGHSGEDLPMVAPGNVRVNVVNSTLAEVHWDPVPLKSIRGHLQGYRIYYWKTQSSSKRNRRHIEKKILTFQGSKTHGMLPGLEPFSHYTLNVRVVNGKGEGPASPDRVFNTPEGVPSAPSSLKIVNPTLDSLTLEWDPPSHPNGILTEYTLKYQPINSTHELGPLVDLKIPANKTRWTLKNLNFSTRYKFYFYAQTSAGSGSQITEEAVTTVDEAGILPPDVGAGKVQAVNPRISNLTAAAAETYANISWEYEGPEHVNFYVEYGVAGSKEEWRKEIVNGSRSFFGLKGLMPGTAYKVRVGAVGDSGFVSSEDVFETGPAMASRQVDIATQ

B1: OV549.20 mouse IgG2a (antibody, V domains shown)
VH: DVQLQESGPGLVKPSQSLSLTCTVTGYSITSDYAWNWIRQFPGNKVEWMGYISYSGSFSYHPSLKSRISITRDTSKNQFFLQLSSVTTEDTATYYCARSFSYGYGFAYWGQGTLVTVSS
VL: DIVMTQSHKFMSTSVGDRVNITCKASQDVSSAVAWYQQKPGQSPKLLIYSASYRYTGVPDHFTGSGSGTDFTFTISSVQAEDLAVYYCQQHYSTPWTFGGGTKLEIKR
modifications: N-glycosylation motif Asn-Ile-Thr in the variable region; glycosylated and non-glycosylated light chain forms present
notes: Recombinant mouse IgG2a expressed in CHO K1 cells; also called OV549.20 (murine); mAb OV549.20
no binding (tested: 1 µg/mL): all assays above
